Laboratory results taken from the supplement of paper PMC10567573.

B1: CD69 (parent)
chain: FVAENSSLHPESGQENDATSPHFS

Variants of: B1
Experiment: protein stability index of a GFP-peptide fusion (GPS, HEK-293T) (PSI 1-6); higher = more stable
Conditions: c terminus: a fixed tail appended
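Note: lentivirally expressed fusions sorted by FACS into six bins by GFP to DsRed ratio, PSI derived from sequencing read proportions per bin multiplied by bin number.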

| Variant | protein stability index |
| --- | --- |
| FVAENSSLHPESGQENDQTSPHFS [A18Q] | 3.53 |
| FVAENSSLHPESGQENDCTSPHFS [A18C] | 2.9 |
| FVAENSSLHPESGQENDWTSPHFS [A18W] | 2.24 |
| FVAENSSLHPESGQENDSTSPHFS [A18S] | 2.91 |
| FVAENSSLHPESGQENDETSPHFS [A18E] | 3.87 |
| FVAENSSLHPESGQENDFTSPHFS [A18F] | 2.67 |
| FVAENSSLHPESGQENDMTSPHFS [A18M] | 2.73 |
| FVAENSSLHPESGQENDDTSPHFS [A18D] | 3.22 |
| FVAENSSLHPESGQENDITSPHFS [A18I] | 2.71 |
| FVAENSSLHPESGQENDGTSPHFS [A18G] | 3.03 |
| FVAENSSLHPESGQENDNTSPHFS [A18N] | 3.07 |
| FVAENSSLHPESGQENDPTSPHFS [A18P] | 3.19 |
| FVAENSSLHPESGQENDHTSPHFS [A18H] | 2.45 |
| FVAENSSLHPESGQENDLTSPHFS [A18L] | 2.85 |
| FVAENSSLHPESGQENDTTSPHFS [A18T] | 2.79 |
| FVAENSSLHPESGQENDYTSPHFS [A18Y] | 2.23 |
| FVAENSSLHPESGQENDVTSPHFS [A18V] | 3.22 |
| FVAENSSLHPESGQENDRTSPHFS [A18R] | 2.57 |
| FVAENSSLHPESGQENDKTSPHFS [A18K] | 2.61 |
| FVAENSSLHPESGQENDAQSPHFS [T19Q] | 3.16 |
| FVAENSSLHPESGQENDAASPHFS [T19A] | 3.35 |
| FVAENSSLHPESGQENDAGSPHFS [T19G] | 3.24 |
| FVAENSSLHPESGQENDAKSPHFS [T19K] | 2.37 |
| FVAENSSLHPESGQENDAMSPHFS [T19M] | 2.73 |

| Variant | protein stability index |
| --- | --- |
| FVAENSSLHPESGQENDARSPHFS [T19R] | 2.92 |
| FVAENSSLHPESGQENDAFSPHFS [T19F] | 1.97 |
| FVAENSSLHPESGQENDAESPHFS [T19E] | 4.03 |
| FVAENSSLHPESGQENDAYSPHFS [T19Y] | 2.02 |
| FVAENSSLHPESGQENDAVSPHFS [T19V] | 2.77 |
| FVAENSSLHPESGQENDAHSPHFS [T19H] | 3.19 |
| FVAENSSLHPESGQENDAPSPHFS [T19P] | 2.84 |
| FVAENSSLHPESGQENDALSPHFS [T19L] | 2.6 |
| FVAENSSLHPESGQENDAWSPHFS [T19W] | 2.75 |
| FVAENSSLHPESGQENDACSPHFS [T19C] | 2.5 |
| FVAENSSLHPESGQENDADSPHFS [T19D] | 3.75 |
| FVAENSSLHPESGQENDANSPHFS [T19N] | 2.9 |
| FVAENSSLHPESGQENDAISPHFS [T19I] | 3.16 |
| FVAENSSLHPESGQENDASSPHFS [T19S] | 2.84 |
| FVAENSSLHPESGQENDATSAHFS [P21A] | 2.62 |
| FVAENSSLHPESGQENEATSPHFS [D17E] | 2.82 |
| FVAENSSLHPESGQENCATSPHFS [D17C] | 2.31 |
| FVAENSSLHPESGQENIATSPHFS [D17I] | 2.69 |
| FVAENSSLHPESGQENRATSPHFS [D17R] | 2.24 |
| FVAENSSLHPESGQENFATSPHFS [D17F] | 2.05 |
| FVAENSSLHPESGQENVATSPHFS [D17V] | 2.36 |
| FVAENSSLHPESGQENHATSPHFS [D17H] | 2.97 |
| FVAENSSLHPESGQENSATSPHFS [D17S] | 2.73 |
| FVAENSSLHPESGQENMATSPHFS [D17M] | 2.46 |

| Variant | protein stability index |
| --- | --- |
| FVAENSSLHPESGQENYATSPHFS [D17Y] | 2.18 |
| FVAENSSLHPESGQENLATSPHFS [D17L] | 2.56 |
| FVAENSSLHPESGQENKATSPHFS [D17K] | 2.2 |
| FVAENSSLHPESGQENQATSPHFS [D17Q] | 2.32 |
| FVAENSSLHPESGQENAATSPHFS [D17A] | 3.79 |
| FVAENSSLHPESGQENNATSPHFS [D17N] | 2.95 |
| FVAENSSLHPESGQENPATSPHFS [D17P] | 2.76 |
| FVAENSSLHPESGQENTATSPHFS [D17T] | 2.54 |
| FVAENSSLHPESGQENWATSPHFS [D17W] | 1.92 |
| FVAENSSLHPESGQENGATSPHFS [D17G] | 2.65 |
| FVAENSSLHPESGQEHDATSPHFS [N16H] | 3 |
| FVAENSSLHPESGQESDATSPHFS [N16S] | 3.19 |
| FVAENSSLHPESGQEVDATSPHFS [N16V] | 3.13 |
| FVAENSSLHPESGQEFDATSPHFS [N16F] | 2.81 |
| FVAENSSLHPESGQEKDATSPHFS [N16K] | 3.29 |
| FVAENSSLHPESGQEPDATSPHFS [N16P] | 2.6 |
| FVAENSSLHPESGQEWDATSPHFS [N16W] | 2.11 |
| FVAENSSLHPESGQEIDATSPHFS [N16I] | 3.01 |
| FVAENSSLHPESGQETDATSPHFS [N16T] | 2.8 |
| FVAENSSLHPESGQEQDATSPHFS [N16Q] | 3.37 |
| FVAENSSLHPESGQEDDATSPHFS [N16D] | 3.61 |
| FVAENSSLHPESGQEYDATSPHFS [N16Y] | 2.72 |
| FVAENSSLHPESGQEGDATSPHFS [N16G] | 2.88 |
| FVAENSSLHPESGQEMDATSPHFS [N16M] | 2.56 |

| Variant | protein stability index |
| --- | --- |
| FVAENSSLHPESGQEEDATSPHFS [N16E] | 3.05 |
| FVAENSSLHPESGQELDATSPHFS [N16L] | 2.81 |
| FVAENSSLHPESGQERDATSPHFS [N16R] | 2.66 |
| FVAENSSLHPESGQENDATDPHFS [S20D] | 4.01 |
| FVAENSSLHPESGQENDATCPHFS [S20C] | 2.78 |
| FVAENSSLHPESGQENDATMPHFS [S20M] | 2.78 |
| FVAENSSLHPESGQENDATTPHFS [S20T] | 3.12 |
| FVAENSSLHPESGQENDATRPHFS [S20R] | 2.45 |
| FVAENSSLHPESGQENDATAPHFS [S20A] | 3.16 |
| FVAENSSLHPESGQENDATQPHFS [S20Q] | 3.15 |
| FVAENSSLHPESGQENDATLPHFS [S20L] | 3.02 |
| FVAENSSLHPESGQENDATGPHFS [S20G] | 3.17 |
| FVAENSSLHPESGQENDATPPHFS [S20P] | 2.54 |
| FVAENSSLHPESGQENDATNPHFS [S20N] | 2.71 |
| FVAENSSLHPESGQENDATIPHFS [S20I] | 3.02 |
| FVAENSSLHPESGQENDATEPHFS [S20E] | 3.75 |
| FVAENSSLHPESGQENDATFPHFS [S20F] | 2.32 |
| FVAENSSLHPESGQENDATYPHFS [S20Y] | 2.11 |
| FVAENSSLHPESGQENDATKPHFS [S20K] | 2.71 |
| FVAENSSLHPESGQENDATWPHFS [S20W] | 2.09 |
| FVAENSSLHPESGQENDATHPHFS [S20H] | 2.5 |
| FVAENSSLHPESGQENDATVPHFS [S20V] | 2.68 |
